What was measured:
[1] = biological target: SARS-CoV-2 main protease with the mutations E290A and R298A (MPro^M) (SARS-CoV-2); experiment: AUC; sedimentation velocity, 50,000 rpm, 25 °C, buffer A; MPro^M at 18-90 µM, without inhibitor
[2] = biological target: SARS-CoV-2 main protease with the mutations E290A and R298A (MPro^M) (SARS-CoV-2); experiment: not stated; 10 µM MPro^M with a 10-fold molar excess of GC376 (100 µM); told with the CD spectra
[3] = biological target: SARS-CoV-2 main protease with the mutations E290A and R298A (MPro^M) (SARS-CoV-2); experiment: enzyme kinetics (calculated from rate constants); dimer to monomers (K1); MPro^M, calculated from the slope of rate against [Mo]^2 (Eq. 3) and from k3/Ks found with GC376 (Eq. 6); buffer B, 28 °C
[4] = biological target: SARS-CoV-2 main protease with the mutations E290A and R298A (MPro^M) (SARS-CoV-2); experiment: AUC; sedimentation velocity, 50,000 rpm, 25 °C, buffer B with 0.1% DMSO; MPro^M at 6-7 µM with GC376 at 1-50 µM

Substance: SARS-CoV-2 main protease with the mutations E290A and R298A (MPro^M) (enzyme)
- Kd [1]: > 0.09 mM
- percent dimeric with 10-fold molar excess of GC376 [2]: 90%
- Kd [3]: 6.6 mM
- free monomer concentration [M] at [Mo] 10 µM and GC376 10 µM [4]: 5e-06 M
- stoichiometry N [4]: 2
